Laboratory results: patent publication US20180155451A1 (published 2018)

T1: FcγRIIb extracellular domain with C-terminal His tag (human, UniProt P31994 43-217)
T1 construct: extracellular domain; Soluble receptor expressed in FreeStyle293 cells, used as analyte in Biacore; also called FcgRIIb; CD32B; not shown: His tag at the C terminus
T1 sequence (looked up): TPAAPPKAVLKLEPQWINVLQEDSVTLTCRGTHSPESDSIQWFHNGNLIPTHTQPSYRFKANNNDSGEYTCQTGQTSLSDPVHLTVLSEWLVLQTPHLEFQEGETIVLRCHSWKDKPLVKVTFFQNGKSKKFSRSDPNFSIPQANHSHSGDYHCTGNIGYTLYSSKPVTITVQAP


Experiments:
[1] = molecular target: T2, FcγRIa extracellular domain with C-terminal His tag (human, UniProt P12314 16-292); assay: SPR (Biacore); ratio of He/Con_1a (FcγRIa) to He/Con_2b (FcγRIIb) of the same antibody
T2 construct: extracellular domain; Soluble receptor expressed in FreeStyle293 cells, used as analyte in Biacore; also called FcgRI; CD64; not shown: His tag at the C terminus
T2 sequence (P12314 16-292): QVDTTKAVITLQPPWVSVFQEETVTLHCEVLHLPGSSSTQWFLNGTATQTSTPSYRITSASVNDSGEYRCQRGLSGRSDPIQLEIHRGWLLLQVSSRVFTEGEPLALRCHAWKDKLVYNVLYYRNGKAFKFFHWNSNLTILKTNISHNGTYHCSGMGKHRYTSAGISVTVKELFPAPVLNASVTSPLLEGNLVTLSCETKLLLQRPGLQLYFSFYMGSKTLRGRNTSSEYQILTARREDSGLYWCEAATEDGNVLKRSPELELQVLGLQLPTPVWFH

[2] = molecular target: T2, FcγRIa extracellular domain with …; assay: SPR (Biacore), antibody captured via antigen peptide, FcγR as analyte; binding relative to GpH7-A5/GpH7-B3/GpL16-k0 = 100
[3] = molecular target: T1, FcγRIIb extracellular domain with …; assay: as above

Binder | Ia/IIb He_1a/2b [1] | He/Con_1a [2] | He/Con_2b [3]
GpH7-A5/GpH7-B3 variant P238_14T/GpL16-k0 (antibody, human IgG1, kappa, Heterodimerized anti-glypican-3 IgG1; substitution in only one H chain; also called P238T; He Ab) heavy 1: not shown heavy 2: not shown light: DIVMTQSPLSLPVTPGEPASISCQASESLVHSNRNTYLHWYLQKPGQSPQLLIYKVSNRFSGVPDRFSGSGSGTDFTLKISRVEAEDVGVYYCSQNTHVPPTFGQGTKVEIERTVAAPSVFIFPPSDEQLKSGTASVVCLLNNFYPREAKVQWKVDNALQSGNSQESVTEQDSKDSTYSLSSTLTLSKADYEKHKVYACEVTHQGLSSPVTKSFNRGEC | 1.8 | 91.1 % of control (GpH7-A5/GpH7-B3/GpL16-k0 = 100) | 50.7 % of control (GpH7-A5/GpH7-B3/GpL16-k0 = 100)
GpH7-A5/GpH7-B3 variant P238_12R/GpL16-k0 (antibody, human IgG1, kappa, Heterodimerized anti-glypican-3 IgG1; substitution in only one H chain; also called P238R; He Ab) heavy 1: not shown heavy 2: not shown light: DIVMTQSPLSLPVTPGEPASISCQASESLVHSNRNTYLHWYLQKPGQSPQLLIYKVSNRFSGVPDRFSGSGSGTDFTLKISRVEAEDVGVYYCSQNTHVPPTFGQGTKVEIERTVAAPSVFIFPPSDEQLKSGTASVVCLLNNFYPREAKVQWKVDNALQSGNSQESVTEQDSKDSTYSLSSTLTLSKADYEKHKVYACEVTHQGLSSPVTKSFNRGEC | 1.5 | 77.3 % of control (GpH7-A5/GpH7-B3/GpL16-k0 = 100) | 51.4 % of control (GpH7-A5/GpH7-B3/GpL16-k0 = 100)
GpH7-A5/GpH7-B3 variant P238_18N/GpL16-k0 (antibody, human IgG1, kappa, Heterodimerized anti-glypican-3 IgG1; substitution in only one H chain; also called P238N; He Ab) heavy 1: not shown heavy 2: not shown light: DIVMTQSPLSLPVTPGEPASISCQASESLVHSNRNTYLHWYLQKPGQSPQLLIYKVSNRFSGVPDRFSGSGSGTDFTLKISRVEAEDVGVYYCSQNTHVPPTFGQGTKVEIERTVAAPSVFIFPPSDEQLKSGTASVVCLLNNFYPREAKVQWKVDNALQSGNSQESVTEQDSKDSTYSLSSTLTLSKADYEKHKVYACEVTHQGLSSPVTKSFNRGEC | 1.27 | 93.3 % of control (GpH7-A5/GpH7-B3/GpL16-k0 = 100) | 73.2 % of control (GpH7-A5/GpH7-B3/GpL16-k0 = 100)

The next lines start with the values.

Ia/IIb He_1a/2b [1] | He/Con_1a [2] | He/Con_2b [3] | Binder
1.66 | 95.2 % of control (GpH7-A5/GpH7-B3/GpL16-k0 = 100) | 57.4 % of control (GpH7-A5/GpH7-B3/GpL16-k0 = 100) | GpH7-A5/GpH7-B3 variant P238_02A/GpL16-k0 (antibody, human IgG1, kappa, Heterodimerized anti-glypican-3 IgG1; substitution in only one H chain; also called P238A; He Ab) heavy 1: not shown heavy 2: not shown light: DIVMTQSPLSLPVTPGEPASISCQASESLVHSNRNTYLHWYLQKPGQSPQLLIYKVSNRFSGVPDRFSGSGSGTDFTLKISRVEAEDVGVYYCSQNTHVPPTFGQGTKVEIERTVAAPSVFIFPPSDEQLKSGTASVVCLLNNFYPREAKVQWKVDNALQSGNSQESVTEQDSKDSTYSLSSTLTLSKADYEKHKVYACEVTHQGLSSPVTKSFNRGEC
1.37 | 96.6 % of control (GpH7-A5/GpH7-B3/GpL16-k0 = 100) | 70.4 % of control (GpH7-A5/GpH7-B3/GpL16-k0 = 100) | GpH7-A5/GpH7-B3 variant P238_13S/GpL16-k0 (antibody, human IgG1, kappa, Heterodimerized anti-glypican-3 IgG1; substitution in only one H chain; also called P238S; He Ab) heavy 1: not shown heavy 2: not shown light: DIVMTQSPLSLPVTPGEPASISCQASESLVHSNRNTYLHWYLQKPGQSPQLLIYKVSNRFSGVPDRFSGSGSGTDFTLKISRVEAEDVGVYYCSQNTHVPPTFGQGTKVEIERTVAAPSVFIFPPSDEQLKSGTASVVCLLNNFYPREAKVQWKVDNALQSGNSQESVTEQDSKDSTYSLSSTLTLSKADYEKHKVYACEVTHQGLSSPVTKSFNRGEC
4.27 | 77.4 % of control (GpH7-A5/GpH7-B3/GpL16-k0 = 100) | 18.1 % of control (GpH7-A5/GpH7-B3/GpL16-k0 = 100) | GpH7-A5/GpH7-B3 variant P238_11K/GpL16-k0 (antibody, human IgG1, kappa, Heterodimerized anti-glypican-3 IgG1; substitution in only one H chain; also called P238K; He Ab) heavy 1: not shown heavy 2: not shown light: DIVMTQSPLSLPVTPGEPASISCQASESLVHSNRNTYLHWYLQKPGQSPQLLIYKVSNRFSGVPDRFSGSGSGTDFTLKISRVEAEDVGVYYCSQNTHVPPTFGQGTKVEIERTVAAPSVFIFPPSDEQLKSGTASVVCLLNNFYPREAKVQWKVDNALQSGNSQESVTEQDSKDSTYSLSSTLTLSKADYEKHKVYACEVTHQGLSSPVTKSFNRGEC
2.13 | 93.8 % of control (GpH7-A5/GpH7-B3/GpL16-k0 = 100) | 44.1 % of control (GpH7-A5/GpH7-B3/GpL16-k0 = 100) | GpH7-A5/GpH7-B3 variant S239_04F/GpL16-k0 (antibody, human IgG1, kappa, Heterodimerized anti-glypican-3 IgG1; substitution in only one H chain; also called S239F; He Ab) heavy 1: not shown heavy 2: not shown light: DIVMTQSPLSLPVTPGEPASISCQASESLVHSNRNTYLHWYLQKPGQSPQLLIYKVSNRFSGVPDRFSGSGSGTDFTLKISRVEAEDVGVYYCSQNTHVPPTFGQGTKVEIERTVAAPSVFIFPPSDEQLKSGTASVVCLLNNFYPREAKVQWKVDNALQSGNSQESVTEQDSKDSTYSLSSTLTLSKADYEKHKVYACEVTHQGLSSPVTKSFNRGEC
1.24 | 99.1 % of control (GpH7-A5/GpH7-B3/GpL16-k0 = 100) | 80 % of control (GpH7-A5/GpH7-B3/GpL16-k0 = 100) | GpH7-A5/GpH7-B3 variant P238_07I/GpL16-k0 (antibody, human IgG1, kappa, Heterodimerized anti-glypican-3 IgG1; substitution in only one H chain; also called P238I; He Ab) heavy 1: not shown heavy 2: not shown light: DIVMTQSPLSLPVTPGEPASISCQASESLVHSNRNTYLHWYLQKPGQSPQLLIYKVSNRFSGVPDRFSGSGSGTDFTLKISRVEAEDVGVYYCSQNTHVPPTFGQGTKVEIERTVAAPSVFIFPPSDEQLKSGTASVVCLLNNFYPREAKVQWKVDNALQSGNSQESVTEQDSKDSTYSLSSTLTLSKADYEKHKVYACEVTHQGLSSPVTKSFNRGEC
